# Reference: PMC11754801, “The molecular basis of Human FN3K mediated phosphorylation of glycated substrates” (Nature Communications, 2025)
# Experiments:
# [1] = target: Full-length (FL) wild-type human (Hs) FN3K, purified from insect cells (human) (UniProt Q9H479); assay: SEC; preparative gel filtration during purification from Sf9 cells; HiLoad 16/60 Superdex 75; 10 mM HEPES pH 7.5, 200 mM NaCl, 0.5 mM TCEP; monomeric and dimeric peaks
# [2] = target: the molecule itself; assay: crystal structure; HsFN3KΔ crystals, space group P212121, two molecules in the asymmetric unit; apo and soaked with nucleotides and DMF
stoichiometry N [1],Molecule,binding result [2]
2,"Full-length (FL) wild-type human (Hs) FN3K, purified from insect cells (from UniProt Q9H479 1-309) (enzyme)",–
–,"HsFN3KΔ (human FN3K with internal loop truncation: amino acids 117-138 replaced with a GSS linker) (enzyme, intermolecular disulfide between Cys24 of each protomer, human FN3K, Gene ID 64122, residues before the truncated loop (117-138); linker that replaces amino acids 117-138; human FN3K, Gene ID 64122, residues after the truncated loop (117-138); Two molecules in the asymmetric unit, domain-swapped dimer; also called apo-HsFN3K; source: E. coli Rosetta 2 (DE3), purified (Ni-NTA, cation exchange, TEV cleavage, SEC); not shown: His6, N-terminal, cleaved) MEQLLRAELRTATLRAFGGPGAGCISEGRAYDTDAGPVFVKVNRRTQARQMFEGEVASLEALRSTGLVRVPRPMKVIDLPGGGAAFVMEHLKMKSLSSQASKLGEQMADLHLYNQKGSSYVDKFGFHTVTCCGFIPQVNEWQDDWPTFFARHRLQAQLDLIEKDYADREARELWSRLQVKIPDLFCGLEIVPALLHGDLWSGNVAEDDVGPIIYDPASFYGHSEFELAIALMFGGFPRSFFTAYHRKIPKAPGFDQRLLLYQLFNYLNHWNHFGREYRSPSLGTMRRLLK",binds
